Experiments:
Experiment in all cases: cell-based or functional assay
[1] = target: receptor binding domain (RBD) in wild-type SARS-COV-2 (SARS-CoV-2 (wild-type)), P0DTC2
[2] = target: receptor binding domain (RBD) in the SARS-CoV-2 Brazilian variant (P.1) (SARS-CoV-2 Brazilian variant (P.1)), P0DTC2
[3] = target: receptor binding domain (RBD) in the SARS-CoV-2 UK variant (B.1.1.7) (SARS-CoV-2 UK variant (B.1.1.7)), P0DTC2

DKEWILQKIYEIMRLLDELGHAEASMRVSDLIYEFMKKD (modifications not checked) [Ce1]
IC50 value, plaque reduction assay using wild-type SARS-COV-2 [1]: 1.5 nM

DKEWILQKIYEIMRRLDEEGHAEASMRVSDLIYEFMKKD (modifications not checked) [Ce9]
IC50 value, plaque reduction assay using the SARS-COV-2 Brazilian variant (P.1) [2]: 1200 nM
IC50 value, plaque reduction assay using the SARS-COV-2 UK variant (B.1.1.7) [3]: 13 nM
IC50 value, plaque reduction assay using wild-type SARS-COV-2 [1]: 0.4 nM

DKEWILQKIYEIMRRLDEEGHGEASLRVSDLIYEFMKKD (modifications not checked) [Ce41]
IC50 value, plaque reduction assay using the SARS-COV-2 UK variant (B.1.1.7) [3]: 0.68 nM

DKLWILQKIYEIMVRLDEEGHGEASLMVSDLIYEFMKRD (modifications not checked) [Ce172]
IC50 value, plaque reduction assay using the SARS-COV-2 UK variant (B.1.1.7) [3]: 0.0022 nM

DKEWILQKIYEIMRRLDEEGHGEASLRVSDLIYEFMKRD (modifications not checked) [Ce59]
IC50 value, plaque reduction assay using the SARS-COV-2 UK variant (B.1.1.7) [3]: 0.2 nM

DKEWILYKIYEIMVRLDEEGHGEASLMVSDLIYEFMKRD (modifications not checked) [Ce149]
IC50 value, plaque reduction assay using the SARS-COV-2 UK variant (B.1.1.7) [3]: 0.0021 nM
